Measured values from the supplement of paper PMC10724198.
± gives the standard deviation of the averaged measurements.

Key:
Saccharomyces cerevisiae [1] = test: protein stability index of tFT-peptide fusion (C-terminal peptide) (PSI (0-1 scale)); higher = more stable (slower turnover)
Description: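 MPS profiling in S. cerevisiae of the tFT-X12 degron library: putative degron peptides plus stable controls, 12 aa, fused to the C-terminus of a sfGFP-mCherry timer. Cells are FACS-sorted into 8 mCherry/sfGFP bins and deep-sequenced. PSI runs from 0 (unstable) to 1 (stable). Backgrounds are wild type, das1Δ and doa10Δ at 30 °C, and wild type, das1Δ, cdc34-1 and cdc53-1 at 37 °C; 2-3 technical replicates each.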

Saccharomyces cerevisiae [2] = test: as above; conditions: genetic background: wild type; temperature: 30 C
[3] = genetic background: cdc34-1, temperature: 37 C
[4] = genetic background: cdc53-1, temperature: 37 C
[5] = genetic background: das1 deletion, temperature: 30 C
[6] = genetic background: das1 deletion, temperature: 37 C
[7] = genetic background: doa10 deletion, temperature: 30 C
[8] = genetic background: wild type, temperature: 30 C
[9] = genetic background: wild type, temperature: 37 C
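Note: PSI is a weighted mean of sequencing reads over stability bins, variants kept only with over 10 reads, mCherry proximal and sfGFP distal, peptide attached via GGGS linker.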

## LFSCTQLLPITA
Saccharomyces cerevisiae [1]; [3]
  protein stability index: 0.0614 ± 0.017
Saccharomyces cerevisiae [1]; [4]
  protein stability index: 0.077 ± 0.012
Saccharomyces cerevisiae [1]; [5]
  protein stability index: 0.173 ± 0.02
Saccharomyces cerevisiae [1]; [6]
  protein stability index: 0.198 ± 0.0068
Saccharomyces cerevisiae [1]; [7]
  protein stability index: 0.141 ± 0.013
Saccharomyces cerevisiae [1]; [8]
  protein stability index: 0.176 ± 0.018
Saccharomyces cerevisiae [1]; [9]
  protein stability index: 0.166 ± 0.0061
Saccharomyces cerevisiae [2]
  protein stability index: 0.245 ± 0.032

## LWFRGGYLFFVV
Saccharomyces cerevisiae [1]; [3]
  protein stability index: 0.44378 ± 0.00022
Saccharomyces cerevisiae [1]; [4]
  protein stability index: 0.444 ± 0.013
Saccharomyces cerevisiae [1]; [5]
  protein stability index: 0.439 ± 0.025
Saccharomyces cerevisiae [1]; [6]
  protein stability index: 0.499 ± 0.01
Saccharomyces cerevisiae [1]; [7]
  protein stability index: 0.2 ± 0.013
Saccharomyces cerevisiae [1]; [8]
  protein stability index: 0.185 ± 0.016
Saccharomyces cerevisiae [1]; [9]
  protein stability index: 0.332 ± 0.0057
Saccharomyces cerevisiae [2]
  protein stability index: 0.265 ± 0.043

## WVSFYLLFFFSF
Saccharomyces cerevisiae [1]; [3]
  protein stability index: 0.459 ± 0.007
Saccharomyces cerevisiae [1]; [4]
  protein stability index: 0.4959 ± 0.0028
Saccharomyces cerevisiae [1]; [5]
  protein stability index: 0.42 ± 0.044
Saccharomyces cerevisiae [1]; [6]
  protein stability index: 0.539 ± 0.015
Saccharomyces cerevisiae [1]; [7]
  protein stability index: 0.395 ± 0.0067
Saccharomyces cerevisiae [1]; [8]
  protein stability index: 0.395 ± 0.017
Saccharomyces cerevisiae [1]; [9]
  protein stability index: 0.5 ± 0.015
Saccharomyces cerevisiae [2]
  protein stability index: 0.483 ± 0.023

## GFYQSGGLVVVV
Saccharomyces cerevisiae [1]; [3]
  protein stability index: 0.6489 ± 0.0026
Saccharomyces cerevisiae [1]; [4]
  protein stability index: 0.674 ± 0.014
Saccharomyces cerevisiae [1]; [5]
  protein stability index: 0.501 ± 0.03
Saccharomyces cerevisiae [1]; [6]
  protein stability index: 0.663 ± 0.0058
Saccharomyces cerevisiae [1]; [7]
  protein stability index: 0.482 ± 0.017
Saccharomyces cerevisiae [1]; [8]
  protein stability index: 0.515 ± 0.013
Saccharomyces cerevisiae [1]; [9]
  protein stability index: 0.64 ± 0.028

## TLDCKFGRGGIG
Saccharomyces cerevisiae [1]; [3]
  protein stability index: 0.309 ± 0.015
Saccharomyces cerevisiae [1]; [4]
  protein stability index: 0.423 ± 0.013
Saccharomyces cerevisiae [1]; [5]
  protein stability index: 0.332 ± 0.0069
Saccharomyces cerevisiae [1]; [6]
  protein stability index: 0.401 ± 0.017
Saccharomyces cerevisiae [1]; [7]
  protein stability index: 0.325 ± 0.0077
Saccharomyces cerevisiae [1]; [8]
  protein stability index: 0.321 ± 0.013
Saccharomyces cerevisiae [1]; [9]
  protein stability index: 0.392 ± 0.0016

## FFCRWGSTVTLL
Saccharomyces cerevisiae [1]; [3]
  protein stability index: 0.604 ± 0.034
Saccharomyces cerevisiae [1]; [4]
  protein stability index: 0.696 ± 0.013
Saccharomyces cerevisiae [1]; [5]
  protein stability index: 0.557 ± 0.014
Saccharomyces cerevisiae [1]; [6]
  protein stability index: 0.647 ± 0.037
Saccharomyces cerevisiae [1]; [7]
  protein stability index: 0.4076 ± 0.001
Saccharomyces cerevisiae [1]; [8]
  protein stability index: 0.427 ± 0.01
Saccharomyces cerevisiae [1]; [9]
  protein stability index: 0.559 ± 0.011

## GAVRGWGWVSFV
Saccharomyces cerevisiae [1]; [3]
  protein stability index: 0.622 ± 0.0072
Saccharomyces cerevisiae [1]; [4]
  protein stability index: 0.789 ± 0.011
Saccharomyces cerevisiae [1]; [5]
  protein stability index: 0.595 ± 0.025
Saccharomyces cerevisiae [1]; [6]
  protein stability index: 0.71792 ± 4.5e-05
Saccharomyces cerevisiae [1]; [7]
  protein stability index: 0.357 ± 0.054
Saccharomyces cerevisiae [1]; [8]
  protein stability index: 0.317 ± 0.04
Saccharomyces cerevisiae [1]; [9]
  protein stability index: 0.436 ± 0.0078

## RWRLWGGWWVVG
Saccharomyces cerevisiae [1]; [3]
  protein stability index: 0.601 ± 0.028
Saccharomyces cerevisiae [1]; [4]
  protein stability index: 0.727 ± 0.012
Saccharomyces cerevisiae [1]; [5]
  protein stability index: 0.579 ± 0.022
Saccharomyces cerevisiae [1]; [6]
  protein stability index: 0.718 ± 0.017
Saccharomyces cerevisiae [1]; [7]
  protein stability index: 0.191 ± 0.019
Saccharomyces cerevisiae [1]; [8]
  protein stability index: 0.196 ± 0.022
Saccharomyces cerevisiae [1]; [9]
  protein stability index: 0.419 ± 0.015

## TGPVFVSFRLLH
Saccharomyces cerevisiae [1]; [3]
  protein stability index: 0.703 ± 0.065
Saccharomyces cerevisiae [1]; [4]
  protein stability index: 0.752 ± 0.012
Saccharomyces cerevisiae [1]; [5]
  protein stability index: 0.67 ± 0.066
Saccharomyces cerevisiae [1]; [6]
  protein stability index: 0.737 ± 0.024
Saccharomyces cerevisiae [1]; [7]
  protein stability index: 0.384 ± 0.015
Saccharomyces cerevisiae [1]; [8]
  protein stability index: 0.405 ± 0.035
Saccharomyces cerevisiae [1]; [9]
  protein stability index: 0.627 ± 0.0095

## AYSVIPSLALLP
Saccharomyces cerevisiae [1]; [3]
  protein stability index: 0.681 ± 0.062
Saccharomyces cerevisiae [1]; [4]
  protein stability index: 0.741 ± 0.008
Saccharomyces cerevisiae [1]; [5]
  protein stability index: 0.631 ± 0.024
Saccharomyces cerevisiae [1]; [6]
  protein stability index: 0.731 ± 0.0022
Saccharomyces cerevisiae [1]; [7]
  protein stability index: 0.646 ± 0.018
Saccharomyces cerevisiae [1]; [8]
  protein stability index: 0.632 ± 0.01
Saccharomyces cerevisiae [1]; [9]
  protein stability index: 0.706 ± 0.0094

## WLFAILPSRLIA
Saccharomyces cerevisiae [1]; [3]
  protein stability index: 0.284 ± 0.021
Saccharomyces cerevisiae [1]; [4]
  protein stability index: 0.373 ± 0.0075
Saccharomyces cerevisiae [1]; [5]
  protein stability index: 0.344 ± 0.035
Saccharomyces cerevisiae [1]; [6]
  protein stability index: 0.488 ± 0.0068
Saccharomyces cerevisiae [1]; [7]
  protein stability index: 0.0644 ± 0.0086
Saccharomyces cerevisiae [1]; [8]
  protein stability index: 0.0673 ± 0.012
Saccharomyces cerevisiae [1]; [9]
  protein stability index: 0.0638 ± 0.0027

## APLFPPPPARSL
Saccharomyces cerevisiae [1]; [3]
  protein stability index: 0.652 ± 0.034
Saccharomyces cerevisiae [1]; [4]
  protein stability index: 0.7023 ± 0.0017
Saccharomyces cerevisiae [1]; [5]
  protein stability index: 0.661 ± 0.014
Saccharomyces cerevisiae [1]; [6]
  protein stability index: 0.704 ± 0.011
Saccharomyces cerevisiae [1]; [7]
  protein stability index: 0.692 ± 0.017
Saccharomyces cerevisiae [1]; [8]
  protein stability index: 0.677 ± 0.03
Saccharomyces cerevisiae [1]; [9]
  protein stability index: 0.688 ± 0.041

## PSLVFLPPPPPR
Saccharomyces cerevisiae [1]; [3]
  protein stability index: 0.673 ± 0.04
Saccharomyces cerevisiae [1]; [4]
  protein stability index: 0.7452 ± 0.0056
Saccharomyces cerevisiae [1]; [5]
  protein stability index: 0.677 ± 0.0098
Saccharomyces cerevisiae [1]; [6]
  protein stability index: 0.7475 ± 0.0016
Saccharomyces cerevisiae [1]; [7]
  protein stability index: 0.681 ± 0.018
Saccharomyces cerevisiae [1]; [8]
  protein stability index: 0.701 ± 0.025
Saccharomyces cerevisiae [1]; [9]
  protein stability index: 0.72099 ± 0.00046

## GGGGGGGDVLVW
Saccharomyces cerevisiae [1]; [3]
  protein stability index: 0.265 ± 0.04
Saccharomyces cerevisiae [1]; [4]
  protein stability index: 0.363 ± 0.036
Saccharomyces cerevisiae [1]; [5]
  protein stability index: 0.265 ± 0.037
Saccharomyces cerevisiae [1]; [6]
  protein stability index: 0.426 ± 0.0099
Saccharomyces cerevisiae [1]; [7]
  protein stability index: 0.202 ± 0.022
Saccharomyces cerevisiae [1]; [8]
  protein stability index: 0.244 ± 0.034
Saccharomyces cerevisiae [1]; [9]
  protein stability index: 0.392 ± 0.0048
